# Experimental data taken from US20240101668A1 (WUGEN, published 2024).
# T1: huCLL1-K244-Avi-Tev-His (human, UniProt Q5QGZ9 65-265)
# T1 construct: extracellular domain
# T1 sequence (looked up): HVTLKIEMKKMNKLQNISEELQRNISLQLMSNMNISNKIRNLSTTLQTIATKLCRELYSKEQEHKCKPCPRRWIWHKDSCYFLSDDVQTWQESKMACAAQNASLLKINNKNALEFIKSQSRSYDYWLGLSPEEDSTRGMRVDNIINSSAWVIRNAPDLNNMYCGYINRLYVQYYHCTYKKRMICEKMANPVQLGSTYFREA
# T2: huCLL1-Q244-Avi-Tev-His (human, UniProt Q5QGZ9 65-265)
# T2 construct: extracellular domain; also called CLL-1 K244Q
# T2 sequence (looked up): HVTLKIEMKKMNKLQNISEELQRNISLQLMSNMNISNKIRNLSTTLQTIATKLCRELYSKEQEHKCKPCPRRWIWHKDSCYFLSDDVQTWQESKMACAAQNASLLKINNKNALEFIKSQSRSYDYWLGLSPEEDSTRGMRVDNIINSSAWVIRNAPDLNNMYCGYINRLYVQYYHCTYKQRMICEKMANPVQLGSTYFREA
# Tests used:
# [1] = target: T1, huCLL1-K244-Avi-Tev-His; test: BLI
# Method: (§1) Discovered scFvs were analyzed for binding to huCD33-R69-His or huCD33-G69-Fc recombinant proteins (for anti-CD33 scFvs; for CLL-1 scFvs, huCLL1-K244-Avi-Tev-His or huCLL1-Q244-Avi-Tev-His were used; for FLT3, huFLT3-T227-His or huFLT3-M227-Fc were used) using BLI on a ForteBio Octet HTX instrument. Streptavidin-coated biosensors were loaded with biotinylated anti-V5 tag monoclonal antibody for 5 min and were then quenched and blocked with 20 μM amine-PEG2-Biotin for 5 min. scFvs were captured on biosensors from scFv clone periplasmic extracts. huCD33 (or huCLL-1, or huFLT3) proteins were then associated with the captured scFvs for 2 minutes, followed by dissociation with buffer (1×HBST [10 mM HEPES pH 7.4, 150 mM NaCl, 0.05% Tween-20], 1 g/L BSA) for 5 minutes. […] Data was fitted with 1:1 Langmuir equation and off-rate values were reported.
# (§2) Analogous methods were used to assess selectivity of binding of polypeptides to CLL-1 K244 or CLL-1 Q244.
# [2] = target: T2, huCLL1-Q244-Avi-Tev-His; test: BLI
# Method: as §1, §2
# 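Note: Bio-layer interferometry with scFvs captured on biosensors via anti-V5 antibody, exposed 2 min to CLL-1 K244 or Q244 protein, 5 min dissociation, scored as binding, no binding or ambiguous.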
Binder,binding result [1],binding result [2]
"Polypeptide No. 58 (scFv, V domains shown, scFv) VH: QVQLVQSGAEVKKPGASVKVSCKASGYTFTDYYLHWVRQAPGQGLEWMGWMNPNSGNTGYAQKFQGRVTMTRDTSTSTVYMELSSLRSEDTAVYYCAADVITAYGMDVWGQGTMVTVSS VL: DIQMTQSPSSLSASVGDRVTITCRASQGISNYLAWYQQKPGKAPKLLIYDASNLETGVPSRFSGSGSGTDFTLTISSLQPEDFATYYCQQSYNVPPTFGQGTKVEIKR",binds,no binding
"Polypeptide No. 67 (scFv, V domains shown, scFv) VH: QVQLVQSGAEVKKPGASVKVSCKASGDTFTRHYVHWVRQAPGQGLEWMGRVNPRDGRTNSAQKFQGRVTMTRDTSTSTVYMELSSLRSEDTAVYYCAKDMFPTVTGTYYYYGMDVWGQGTTVTVSS VL: DIQMTQSPSSLSASVGDRVTITCRASQGISSYLAWYQQKPGKAPKLLIYDASNLETGVPSRFSGSGSGTDFTLTISSLQPEDFATYYCQQASGFPYTFGQGTRLEIKR",no binding,binds
"Polypeptide No. 60 (scFv, V domains shown, scFv) VH: QVQLVQSGAEVKKPGSSVKVSCKASGGTFSSYAISWVRQAPGQGLEWMGGIIPMFGTANYAQKFQGRVTITADESTSTAYMELSSLRSEDTAVYYCARDLGYSNAGGTLHYWGQGTLVTVSS VL: EIVMTQSPATLSVSPGERATLSCRASQSIGTYLAWYQQKPGQAPRLLIYDASSRATGIPARFSGSGSGTEFTLTISSLQSEDFAVYYCQQYKSYPLTFGGGTKVEIKR",binds,no binding
"Polypeptide No. 64 (scFv, V domains shown, scFv) VH: QVQLVQSGAEVKKPGASVKVSCKASGYTFTDYYMHWVRQAPGQGLEWMGLIDPSGGSTNSLQKFQGRVTMTRDTSTSTVYMELSSLRSEDTAVYYCARDVGFGELSFDIWGQGTTVTVSS VL: DIVMTQSPLSLPVTPGEPASISCRSSQSLLHSNGYNYLDWYLQKPGQSPQLLIYAASTLQSGVPDRFSGSGSGTDFTLKISRVEAEDVGVYYCMQGTHWPPTFGPGTKVDIKR",binds,no binding
"Polypeptide No. 54 (scFv, V domains shown, scFv) VH: QVQLVQSGAEVKKPGASVKVSCKASGGTFSSYAISWVRQAPGQGLEWMGWIDPKNGDTNYAQKFQGRVTMTRDTSTSTVYMELSSLRSEDTAVYYCATEGSHHPYYYYGMDVWGQGTTVTVSS VL: DIQMTQSPSSLSASVGDRVTITCRASQGIGNWLAWYQQKPGKAPKLLIYEASTLQSGVPSRFSGSGSGTDFTLTISSLQPEDFATYYCHQYNAYPWTFGQGTKVEIKR",binds,no binding
"Polypeptide No. 52 (scFv, V domains shown, scFv) VH: QVQLVQSGAEVKKPGASVKVSCKASGDTFTRHYVHWVRQAPGQGLEWMGIINPRGGTHYAQKFQGRVTMTRDTSTSTVYMELSSLRSEDTAVYYCARRDCSGGSCYSDLDYWGQGTLVTVSS VL: DIQMTQSPSSLSASVGDRVTITCQASQDIHNYLNWYQQKPGKAPKLLIYQASSLESGVPSRFSGSGSGTDFTLTISSLQPEDFATYYCQQANSFPLTFGGGTKLEIKR",binds,no binding
"Polypeptide No. 57 (scFv, V domains shown, scFv) VH: QVQLVQSGAEVKKPGASVKVSCKASGYTFNNYGITWVRQAPGQGLEWMGIINPITGVTTYAQNFQGRVTMTRDTSTSTVYMELSSLRSEDTAVYYCASGEQQLVLFDYWGQGTLVTVSS VL: DIQMTQSPSSLSASVGDRVTITCQASQDINDYLNWYQQKPGKAPKLLIYGASNLQSGVPSRFSGSGSGTDFTLTISSLQPEDFATYYCLQHNSYPLTFGQGTKLEIKR",binds,no binding
"Polypeptide No. 59 (scFv, V domains shown, scFv) VH: EVQLLESGGGLVQPGGSLRLSCAASGFTFSNAWMSWVRQAPGKGLEWVADISYDGTNDYYADSVKGRFTISRDNSKNTLYLQMNSLRAEDTAVYYCTTEELRFGGFDYWGQGTLVTVSS VL: DIQMTQSPSSLSASVGDRVTITCRASQSISSYLNWYQQKPGKAPKLLIYDASNLETGVPSRFSGSGSGTDFTLTISSLQPEDFATYYCQQANSFPLTFGQGTKVEIKR",binds,no binding
"Polypeptide No. 63 (scFv, V domains shown, scFv) VH: QVQLVQSGAEVKKPGASVKVSCKASGYTFTGYYVHWVRQAPGQGLEWMGVINPSGGGSPSYAQKFQGRVTMTRDTSTSTVYMELSSLRSEDTAVYYCARDRSDVDYGMDVWGQGTTVTVSS VL: DIQMTQSPSSLSASVGDRVTITCQASQDISNYLNWYQQKPGKAPKLLIYDASNLQSGVPSRFSGSGSGTDFTLTISSLQPEDFATYYCLQHNSYPLTFGGGTKVEIKR",binds,no binding
"Polypeptide No. 62 (scFv, V domains shown, scFv) VH: QVQLVQSGAEVKKPGASVKVSCKASGYTFTDHFVHWVRQAPGQGLEWMGWISAYNGNTNYAQKFQGRVTMTRDTSTSTVYMELSSLRSEDTAVYYCARAEYSYGFDYWGQGTLVTVSS VL: DIQMTQSPSSLSASVGDRVTITCRASQGIHNYLAWYQQKPGKAPKLLIYDASNLETGVPSRFSGSGSGTDFTLTISSLQPEDFATYYCQQTSSFPYTFGQGTKLEIKR",binds,no binding
"Polypeptide No. 51 (scFv, V domains shown, scFv) VH: QVQLVQSGAEVKKPGSSVKVSCKASGGTFSSYAISWVRQAPGQGLEWMGEIIPFFGTANYAQKFQGRVTITADESTSTAYMELSSLRSEDTAVYYCARAEYGGDLDYWGQGTLVTVSS VL: DIQMTQSPSSLSASVGDRVTITCQASQDISNLLNWYQQKPGKAPKLLIYAASTLQSGVPSRFSGSGSGTDFTLTISSLQPEDFATYYCQQSYNTPWTFGPGTKVDIKR",binds,no binding
"Polypeptide No. 55 (scFv, V domains shown, scFv) VH: QVQLVQSGAEVKKPGASVKVSCKASGYTFTGYHMHWVRQAPGQGLEWMGWINPNTGGTNYAQKFQGRVTMTRDTSTSTVYMELSSLRSEDTAVYYCARPNTAMVPPYYYYYGMDVWGQGTLVTVSS VL: DIQMTQSPSSLSASVGDRVTITCQASQDISNYLNWYQQKPGKAPKLLIYAASSLQSGVPSRFSGSGSGTDFTLTISSLQPEDFATYYCQQYNSYPLTFGQGTKLEIKR",binds,no binding
"Polypeptide No. 50 (scFv, V domains shown, scFv) VH: QVQLVQSGAEVKKPGASVKVSCKASGYTFTDYYMHWVRQAPGQGLEWMGIINPSDGSTTYAQSFQGRVTMTRDTSTSTVYMELSSLRSEDTAVYYCARDELPDSSGWYGYFQHWGQGTLVTVSS VL: DIQMTQSPSSLSASVGDRVTITCRASQSISSWLAWYQQKPGKAPKLLIYAASSLQSGVPSRFSGSGSGTDFTLTISSLQPEDFATYYCQQSYDIPLTFGGGTKVEIKR",binds,no binding
"Polypeptide No. 56 (scFv, V domains shown, scFv) VH: QVQLVQSGAEVKKPGASVKVSCKASGYTFTSYDINWVRQAPGQGLEWMGWMNPNSGNTGYAQKFQGRVTMTRDTSTSTVYMELSSLRSEDTAVYYCARVSATGTYGLDYWGQGTLVTVSS VL: DIQMTQSPSSLSASVGDRVTITCRASHSISSWLAWYQQKPGKAPKLLIYDASNLETGVPSRFSGSGSGTDFTLTISSLQPEDFATYYCQQADSFPLTFGGGTKVEIKR",binds,no binding
"Polypeptide No. 53 (scFv, V domains shown, scFv) VH: QVQLVQSGAEVKKPGASVKVSCKASGGTFSSYAISWVRQAPGQGLEWMGWINPDSGDASYARKFQGRVTMTRDTSTSTVYMELSSLRSEDTAVYYCATFGEEAFDIWGQGTMVTVSS VL: DIQMTQSPSSLSASVGDRVTITCRASQNIGSWLAWYQQKPGKAPKLLIYGASILQSGVPSRFSGSGSGTDFTLTISSLQPEDFATYYCQQANSFPLTFGGGTKLEIKR",binds,no binding
"Polypeptide No. 68 (scFv, V domains shown, scFv) VH: QVQLVQSGAEVKKPGASVKVSCKASGYTFSSYDINWVRQAPGQGLEWVGWINPRNGGTDYAQKFQGRVTMTRDTSTSTVYMELSSLRSEDTAVYYCARHRWELDSFDYWGQGTLVTVSS VL: DIQMTQSPSSLSASVGDRVTITCRASQSISNYLNWYQQKPGKAPKLLIYATSSLQSGVPSRFSGSGSGTDFTLTISSLQPEDFATYYCQQGYNIPFTFGQGTKLEIKR",no binding,binds
"Polypeptide No. 65 (scFv, V domains shown, scFv) VH: QVQLVQSGAEVKKPGASVKVSCKASGYTFTGYYMHWVRQAPGQGLEWMGWINPNSGGTNYAQKFQGRVTMTRDTSTSTVYMELSSLRSEDTAVYYCAREIGGYDNYYYYGMDVWGQGTTVTVSS VL: DIQMTQSPSSLSASVGDRVTITCRASQSIGTYLNWYQQKPGKAPKLLIYAASSLQSGVPSRFSGSGSGTDFTLTISSLQPEDFATYYCQQSYTDPWTFGQGTKVEIKR",binds,no binding
"Polypeptide No. 66 (scFv, V domains shown, scFv) VH: QVQLVQSGAEVKKPGASVKVSCKASGYTFNTYYMHWVRQAPGQGLEWMGWMHPNTGNTGYAQKFQGRVTMTRDTSTSTVYMELSSLRSEDTAVYYCARGTTSDAFDIWGQGTMVTVSS VL: DIQMTQSPSSLSASVGDRVTITCRASQSIFSYLNWYQQKPGKAPKLLIYSASNLQSGVPSRFSGSGSGTDFTLTISSLQPEDFATYYCQQSYSTPITFGQGTKVEIKR",binds,no binding
